# According to patent US6025158A, “Nucleic acids encoding humanized anti-IL-8 monoclonal antibodies” (Genentech, Inc., dated 2000):
# Like-named read-outs stand apart in the source and are kept apart here.
# T1: rabbit IL-8 (rabbit, UniProt P19874)
# T1 sequence: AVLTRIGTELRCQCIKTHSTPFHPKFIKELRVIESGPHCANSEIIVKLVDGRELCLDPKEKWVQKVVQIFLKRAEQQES
# B1: 5.12.14: murine anti-human IL-8 monoclonal antibody, IgG2a, hybridoma ATCC HB 11553 (antibody, V domains shown)
# VL: KASQNVGTNVAWYQQKPGQSPKALIYSSSYRYSGVPDRFTGSGSGTDFTLTISHVQSEDLADYFCQQYNIYPLTFGPGTKLELKRADAAPPTVSIFPPFE
# VH: ASGFIFSSYGMSWVRQTPGKSLELVATINNNGDSTYYPDSVKGRFTISRDNAKNTLYLQMSSLKSEDTAMFYCARALISSATWFGYWGQGTLVTVSAAKTTAPSVYP
# B2: 6G4.2.5: murine anti-rabbit IL-8 monoclonal antibody, IgG2a, hybridoma ATCC HB 11722 (antibody, V domains shown)
# VL: DIVMTQTPLSLPVSLGDQASISCRSSQSLVHGIGNTYLHWYLQKPGQSPKLLIYYKVSNRFSGVPDRFSDSGSGTDFTLRISRVEAEDLGLYFCSQSTHVPLTFGAGTKLELKR
# VH: EIQLQQSGPELMKPGASVKISCKASGYSFSSHYMHWVKQSHGKSLEWIGYIDPSNGETTYNQKFKGKATLTVDTSSSTANVHLSSLTSDDSAVYFCAARGDYRYNGDWFFDVWGAGT
# B3: humanized 6G425 F(ab)-1 (Fab, V domains shown)
# VH: EVQLVESGGGLVQPGGSLRLSCAASGYSFSSHYMHWVRQAPGKGLEWVGYIDPSNGETTYNQKFKGRFTISRDNSKNTLYLQMNSLRAEDTAVYYCAARGDYRYNGDWFFDVWGQGT
# VL: DIQMTQSPSSLSASVGDRVTITCRSSQSLVHGIGNTYLHWYQQKPGKAPKLLIYYKVSNRFSGVPSRFSGSGSGTDFTLTISSLQPEDFATYYCSQSTHVPLTFGQGTKVEIKR
# B4: 6G4V11N35A Fab (Fab, V domains shown)
# VH: EVQLVQSGGGLVQPGGSLRLSCAASGYSFSSHYMHWVRQAPGKGLEWVGYIDPSNGETTYNQKFKGRFTLSRDNSKNTAYLQMNSLRAEDTAVYYCARGDYRYNGDWFFDVWGQGTLVTVSS
# VL: DIQMTQSPSSLSASVGDRVTITCRSSQSLVHGIGATYLHWYQQKPGKAPKLLIYKVSNRFSGVPSRFSGSGSGTDFTLTISSLQPEDFATYYCSQSTHVPLTFGQGTKVEIKR
# How the values were obtained:
# [1] = isoelectric focusing (IEF); format: physicochemical; conditions: IEF pH 3-9
# Protocol: The isoelectric focusing (IEF) pattern of each mAb was determined by applying purified antibodies on an IEF polyacrylamide gel (pH 3-9, Pharmacia) using the Fast gel system (Pharmacia, Piscataway, N.J.). The IEF gel was pretreated with pharmalyte containing 1% Triton X100 (Sigma, St. Louis, Mo.) for 10 min before loading the samples. The IEF pattern was visualized by silver staining according to the instructions from the manufacturer. All of the monoclonal antibodies had different IEF patterns, confirming that they originated from different clones.
# [2] = biological target: T2, IL-8 binding to human neutrophils (Homo sapiens, UniProt P10145); test: receptor binding assay: 125I-IL-8 bound to human neutrophils in presence of mAbs; conditions: 1:25 molar ratio of IL-8 to mAb
# T2 construct: is intended to mean (ser-IL-8)72 unless otherwise specified; ubiquitin (production fusion); made in house
# Protocol: Neutrophils were prepared by using Mono-Poly Resolving Medium (M-PRM) (Flow Lab. Inc., McLean, Va.). Briefly fresh, heparinized human blood was loaded onto M-PRM at a ratio of blood to medium, 3.5:3.0, and centrifuged at 300×g for 30 min at room temperature. Neutrophils enriched at the middle layer were collected and washed once in PBS. […] The receptor binding assay was done as follows. […] The mixture was then incubated with 100 μl of neutrophils (10^7 cells/ml) for 15 min at 37° C. […] The supernatant was removed by aspiration and the radioactivity associated with the pellet was counted in a gamma counter.
# [3] = test system: IL-8 induced human neutrophil chemotaxis; test: neutrophil chemotaxis induced by IL-8, Boyden chamber method; format: cell-based; conditions: 1:10 ratio of IL-8 to mAb
# Protocol: The ability of the anti-IL-8 antibodies to block neutrophil chemotaxis induced by IL-8 was tested as follows. Neutrophil chemotaxis induced by IL-8 was determined using a Boyden chamber method (Larsen, et al. Science 243:1464 (1989)). One hundred μl of human neutrophils (10^6 cells/ml) resuspended in RPMI containing 0.1% BSA were placed in the upper chamber and 29 μl of the IL-8 (20 nM) with or without monoclonal antibodies were placed in the lower chamber. Cells were incubated for 1 hr at 37° C. Neutrophils migrated into the lower chamber were stained with Wright's Giemsa stain and counted under the microscope (100×magnification). Approximately 10 different fields per experimental group were examined. Neutralizing monoclonal antibodies 5.12.14 and 4.1.3 blocked almost 70% of the neutrophil chemotactic activity of IL-8 at 1:10 ratio of IL-8 to mAb.
# [4] = test system: human IL-8 mediated elastase release from human neutrophils; test: IL-8 mediated release of elastase by neutrophils (mAb); format: cell-based; conditions: 1:1 ratio of IL-8 to mAb
# Protocol: One of the antibodies, mAb 5.12.14, was further studied to determine whether it could block the IL-8 mediated release of elastase by neutrophils. Briefly, human neutrophils were resuspended in Hanks balanced salt solution (Gibco, Grand Island, N.Y.) containing 1.0% BSA, Fraction V (Sigma, St. Louis, Mo.), 2 mg/ml alpha-D-glucose (Sigma), 4.2 mM sodium bicarbonate (Sigma) and 0.01 M HEPES, pH 7.1 (JRH Bioscience, Lenexa, Kans.). A stock of cytochalasin B (Sigma) was prepared (5 mg/ml in dimethylsulfoxide (Sigma) and stored at 2-8° C. Cytochalasin B was added to the neutrophil preparation to produce a final concentration of 5 μg/ml, and incubated for 15 min at 37° C. Human IL-8 was incubated with mAb 5.12.14 (20 μl), or a negative control antibody, in 1 ml polypropylene tubes (DBM Scientific, San Fernando, Calif.) for 30 min at 37° C. The final assay concentrations of IL-8 were 50 and 500 nM. The monoclonal antibodies were diluted to produce the following ratios (IL-8:Mab): 1:50, 1:10, 1:2, 1:1, and 1:0.25. Cytochalasin B-treated neutrophils were added (100 μl/tube) and incubated for 2 hours at 25° C. The tubes were centrifuged (210×g, 2-8° C.) for 10 min, and supernatants were transferred to 96 well tissue culture plates (30 μl/well). […] Absorbance was measured at 405 nm (SLT 340 ATTC plate reader, SLT Lab Instruments, Austria).
# IL-8 [5] = biological target: T3, IL-8 (Homo sapiens, UniProt P10145); test: radioimmune precipitation test (RIP), capture of soluble 125I-IL-8; format: binding; design: is intended to mean (ser-IL-8)72 unless otherwise specified; ubiquitin (production fusion); made in house
# Protocol: One hundred microliters of a predetermined concentration of goat anti-mouse Ig antisera (Pel-Freez, Rogers, Ark.) were added and the mixture was incubated at room temperature for 1 hr. Immune complexes were precipitated by the addition of 0.5 ml of 6% polyethylene glycol (M.W. 8000) kept at 4° C. After centrifugation at 2,000×g for 20 min at 4° C., the supernatant was removed by aspiration and the radioactivity remaining in the pellet was counted in a gamma counter. Percent specific binding was calculated as (precipitated cpm-background cpm)/(total cpm-background cpm).
# IL-8 [6] = biological target: T3, IL-8; test: competitive binding ELISA (epitope comparison of biotinylated and unlabeled mAbs); design: is intended to mean (ser-IL-8)72 unless otherwise specified; ubiquitin (production fusion); made in house; conditions: biotinylated mAb to unlabeled mAb 1:100
# Protocol: To assess whether these monoclonal antibodies bound to the same epitopes, a competitive binding ELISA was performed. […] Thus, mAb 4.1.3 and mAb 5.2.3 bind to a different epitope(s) than the epitope recognized by monoclonal antibodies 12.3.9, 4.8 and 5.12.14.
# [7] = biological target: IL-8 binding to IL-8 receptors on human neutrophils (Homo sapiens, UniProt P10145); test: inhibition of 125I-IL-8 binding to human neutrophils (competition binding assay); conditions: read-out: average IC50, inhibition of 125I-IL-8 binding to human neutrophils; characterization of 6G4V11N35A Fab and F(ab')2 (FIGS. 33, 38)
# [8] = test system: neutrophils in bronchoalveolar lavage (BAL) fluid; test: neutrophils in bronchoalveolar lavage (BAL) fluid of animals infected with bacteria; format: in vivo; conditions: infected with Streptococcus pneumoniae, Escherichia coli, or Pseudomonas aeruginosa; versus isotype control mouse IgG
# Text: FIG. 12 is a graph depicting the effect of anti-IL-8 monoclonal antibody treatment on the number of neutrophils in bronchoalveolar lavage (BAL) fluid in animals infected with Streptococcus pneumoniae, Escherichia coli, or Pseudomonas aeruginosa.
# [9] = biological target: T4, recombinant human IL-8, (ser-IL-8)72 (human, UniProt P10145); test: inhibition of 125I-IL-8 binding to human neutrophils
# [10] = biological target: T4, recombinant human IL-8, (ser-IL-8)72; test: as above; remark: listed apart in the source
# [11] = biological target: T4, recombinant human IL-8, (ser-IL-8)72; test: 125I-IL-8 neutrophil competition; reference by Table 4: chimeric F(ab)
# [12] = biological target: human monomeric IL-8 (human)
# [13] = biological target: T4, recombinant human IL-8, (ser-IL-8)72
# [14] = biological target: T4, recombinant human IL-8, (ser-IL-8)72; remark: listed apart in the source
# rabbit IL-8 = biological target: T1, rabbit IL-8; test: cell-based or functional assay
# [15] = biological target: T4, recombinant human IL-8, (ser-IL-8)72; test: KinExA, equilibrium, human IL-8
# Protocol: The beads were resuspended in assay buffer (0.1% bovine serum albumin in PBS) to a final volume of 30 ml.
# The equilibrium constant (Kd) was calculated using the software provided by Sapidyne Instruments Inc.
molecule,measurement,setting,value
B1,pI,[1],6.2-7.4
same,inhibition of binding of IL-8 to human neutrophils,[2],greater than 85%
same,block of neutrophil chemotactic activity of IL-8,[3],~70%
same,block of IL-8 mediated release of elastase from neutrophils,[4],able to effectively block the release of elastase from neutrophils
same,% Specific Binding to IL-8,"IL-8 [5]; 125I-IL-8, RIP",98%
same,ability to capture soluble 125I-IL-8,IL-8 [5]; RIP,captured ^125 I-IL-8 very efficiently
same,inhibition of binding of biotinylated mAb (epitope),IL-8 [6],significantly inhibited by its homologous mAb but not by mAb 4.1.3
B2,IC50,[7],5 nM
same,number of neutrophils in BAL fluid,[8],significantly reduced the number of neutrophils present in the BAL fluid
B3,IC50,[9],40 nM
same,IC50,[10],63 nM
same,fold reduction in binding affinity,[11],5.5 fold
B4,"IC50, IL-8 mediated neutrophil chemotaxis",[12],1 nM
same,"IC50, human IL-8 mediated neutrophil chemotaxis",[13],2.7 nM
same,"IC50, IL-8 mediated PMN chemotaxis",[14],0.8 nM
same,"IC50, IL-8 mediated neutrophil chemotaxis",rabbit IL-8,5 nM
same,Kd,[15],~0.114 nM
